{"source": "a protein production outcome set (Wang et al. 2014)"}
{"test": "label from the status in PepcDB records"}
{"sequence": "MNDDLSWMLDSALEIPGALHAVLISADGLLMARTQDFDKDDADRVAAAMSGVQSLSRTLAFFCEDPSQTWRQTLVEFDGGWVFLISAGEGAYLGVSASPEVDMADITFRMQQLVAQLGKRLTTPPRENLGARS", "protein production": "failed"}
{"sequence": "MNDDVEFRYADFLFKNNNYAEAIEVFNKLEAKKYNSPYIYNRRAVCYYELAKYDLAQKDIETYFSKVNATKAKSADFEYYGKILMKKGQDSLAIQQYQAAVDRDTTRLDMYGQIGSYFYNKGNFPLAIQYMSKQIRPTTTDPKVFYELGQAYYYNKEYVKADSSFVKVLELKPNIYIGYLWRARANAAQDPDTKQGLAKPYYEKLIEVCAPGGAKYKDELIEANEYIAYYYTINRDKVKADAAWKNILALDPTNKKAIDGLKMKLEHHHHHH", "protein production": "not failed"}
{"sequence": "MNDLTKGKPLKLIFWFTIPLLIGNIFQQFYSLSDTLIVGQTLGVKALAAVGSTGSVQFLIIGFAQGLTAGLSILTAQHFGARDFKAVRRSFAISIVVSLIVGIILTILSLIFVDHILLLMQTPTDIIADARTFLQIMLGGMLAPIAFNLLSNIIRALGDSRTPLWFLIISALINIGLELLFILVFKWGIAGASWATILAQTIATLMCVVYIIVKVPILHIGRRHFKLVWSEVKAHLNVGLPMAFQMSIIAIGTIVLQAALNSLGTNSVAATTAAQKIDQVATQPLMSFGVTMATFAAQNYGAHQYERIITGVKQTMWLSGSFSVAAGLIEIIWGKQLVGFFVGHQDMAVLNLSQTYFNVIGSTYILLSMLFIMRNTLQGLGRSAIPTLAGAAELFMRVFAALILVRIFDYAGACSSEPLAWLGSCAVLLPAYIKSVHDLRQQARMTNTVAEGAEPILNDSEKL", "protein production": "failed"}
{"sequence": "MNDLVESLIYEVNNMQQNFENVKSQQQDHDFYQTVKPYTEHIDSILNEIKLHREFIIEVPYMNSRKFELLIANIEQLSVECHFKRTSRKLFIEKLKSVQYDLQNILDGVTKEGTDG", "protein production": "not failed"}
{"sequence": "MNDQVRLHYETWVYPRYPLAASVRRSDTYALSLDALYARFNGTLPPAAARRILLAGCGSFSPYPTAVANPGVPVTALDLSAANLRRARLHAWMHGRFGISFEQGDLMDPAAAQGEYGFIDSFGVIHHLADPLAGLRALERRLAPGGILRLMVYSRGARRVVESARRALRFAGVRDVARLKDLLRRSPPGSRLSHAVEASGEGGGDAGLADALLHPRARIFSIDELMAMVGETGLVPLRFAHSRALAEPGAEVVRLRGLEQAGEPVPNFVLYLGREPRGGCGLAPDALLMLNPALRHDVGVLRLAPLAVPPRLGLKNPVLGFADRRFLRRFSTPLPVSALTPTDRERVGPFLDALFVIPFR", "protein production": "failed"}
{"sequence": "MNDRVIQNSRQGERVLAALSYFSIFFAPIILPIFIWIFADRPTSNHAAKSLAYHIITYIGPILLILSIGFGGVLINNSSTITSVIMITVAIILFVITVWYTIKNIYRGVRVLISEHAYFHP", "protein production": "failed"}
{"sequence": "MNEDLAVIVYTSGTTGNPKGVMITYENIKTNMEGVRAVDLVTETDVILAMLPYHHIMPLCFTLILPMYMGVPIVLLTEISSASLLKALQENRVTVILGVPRVWEMLDKAIMTKINQSSLAKFMFKMASKINSMSIRKMLFSKVHKQFGGNIRLMVSGGAKIDKNILEDFRTMGFCAIQGYGMTETAPIITFNVPGRERSDSAGLEHHHHHH", "protein production": "failed"}
{"sequence": "MNEEQRKSTSIDILAERDKKTKDYSKYFEHVYQPPSLKEARKRGKEEVNYNDDFQIDEKYRNMGQGKTFLIKTYGCQMNAHDTEVMAGILGALGYTPTEDINHADVILINTCAIRENAENKVFSEIGNLKHLKKEKPETVIGVCGCMSQEESVVNKILKSYQNVDMIFGTHNIHRLPEILEEAYLSKAMVVEVWSKEGDVIENLPKVREGNIKAWVNIMYGCDKFCTYCIVPFTRGKERSRRPEDIIDEVRDLARQGYKEITLLGQNVNAYGKDIDGLAYGLGDLLEDISKIDIPRVRFTTSHPWDFTDRMIEVIANGGNIVPHVHLPVQSGNNAVLKIMGRKYTRESYLDLVNRIKTHIPNVALTTDIIVGYPNETDEQFEETLTLYDEVEFEHAYTYIYSQRDGTPAAKMNDNVPLDVKKDRLQQLNKKVACYSERAMQQYEGQTVQVLCEGVSKKDDTVLSGYTSKNKLVNFKAPKSMIGKIVNVYIDEAKQFSLNGTFISVNDKTVVTQLEHHHHHH", "protein production": "not failed"}
{"sequence": "MNEILHWKRNFFLLALGRFVSILGSSVQAVAIPLFVLDLTHSGSAVALMTVAYMVPRILFTPIAGIVGDRGDRKFLMVSMDFLRGFLICFLALLAFRNSITLPVLYVSQIAMAIMDNLFDIPTGAMFPDIVPQDFLMRANSIMGMVRIFPQILGPALGGVIYGFYGIAIVFLVNGVSFVLSAISEIFIVYSRKVEKKPAKFSQILEDLKEGFLFIWNHELIRTILIFALFLNLLISPLFMVVYPYTIREVMKFSAQEFGFLETSFTLGALLGNFLIASYLSKKNMWKAMKISIFLFELPIVFLGFLVMPDFSLNRLVLFSLFFITFLIMGFLNPIINVPLDTAFQKMTPSHIRARAFSFLILVANGVTPLGSVLYGYLVDRVPVHFLYYVVGALSFLVAVLLLVALRGKELPT", "protein production": "failed"}
{"sequence": "MNEKIEQAIREMGFKNFTEVQSKTIPLMLQGKNVVVRAKTGSGKTAAYAIPILELGMKSLVVTPTRELTRQVASHIRDIGRYMDTKVAEVYGGMPYKAQINRVRNADIVVATPGRLLDLWSKGVIDLSSFEIVIIDEADLMFEMGFIDDIKIILAQTSNRKITGLFSATIPEEIRKVVKDFITNYEEIEACIGLANVEHKFVHVKDDWRSKVQALRENKDKGVIVFVRTRNRVAKLVRLFDNAIELRGDLPQSVRNRNIDAFREGEYDMLITTDVASRGLDIPLVEKVINFDAPQDLRTYIHRIGRTGRMGRKGEAITFILNEYWLEKEVKKVSQKA", "protein production": "not failed"}
{"sequence": "MNEKIVREQRGGEDSPSSVSAKSATAAASASTASMTFASAALESHKTTTITTASSSPRTSGASASASSSSRSASAPASSSSQQEKQPMLNATDMRELREIKQLLWGDNVREDVFKRWSQGFEFSKVEPSALVQKQGGPCAVIAPVQAYLLKIIIMDLPGIKLSEISLDKSQNLLIQALCDILKNCRAPRYRIVHLLRRRGNATEAGSTKKRSPAGEEESALAGQAAGSSEEVEEAAEATPASVSKLSQALQLEHDMHQELSPDEFHERLHTLHFKNIAAVARYYMENYDQLAHTYGVLLFMYSVFLTKGLELVAADISDTSEPLIHSTYGYGGQSLINLMLTGRAVAHVWDNEQDVGGLKLRGICEQSDIGFITLMEEMRYCTVGSFFKNPRYPVWVMGSDTHLTVLFSNEKRLVSPETPSETGRRIFKSYDPEGNNFISTTMLREVLIALNLVSEPAYVALMQKRLDPENLGIILLNAFMDEFFPLESRSTPDTFELMHYNGIPGSNENNKVRYYCGTAILLEGDLKSVCTSNPMVTCLQTKWPNIEINWHDGHMPSLN", "protein production": "failed"}
{"sequence": "MNEKTINEQYAYIRTLLEEKRLKEALMQLESLLWQCPDWDLRTRLEQLQTSYKYMLEYMRQGANDPERWNVYRKLIADTWEIADRSRLLMLDNASSRYYHEVRRTPRPESLSAYTLKKLLHMLESFNDDLAVSGLLSDEKMDEVLKRHEETLKYMFLQTWTNSAWTPEEEEDAQSMLTSELLPVNDLCLFISAVTLSLMECFDLRKIMWLLDAYRHPDVNAGQRALVGVIFIFHIYKNRLSLYNDLVKRVDLMDEISPFKEDVARIYHQMLLCQETEKIDKKMREEIIPEMLKNVSSMRNMRFGFEENEDENDDKNPDWADAFEQSGLGDKLREMNELQLEGADVYMSTFAALKSYPFFREVQNWFYPFSKQQSDVIKQLKQEGNEKNTLLDLILQSGFFSNSDKYSLFFTIRQLPKAQQDMMLSQLGEQQVAELTEKSSAETMKKFNERPGTVSNQYLHDLYRFFKLSVRRHEFRDIFKEKLDLHHIPALSNVLYSEDILFPIADFYLKKERWNEAIEVYEEMETIGALQERGAEYYQKLGYALQKSKKYAEAIGAYLKADTLKPDNIWNNRHLAICYRLNRNYQAALSYYKKVEEATPEDTNVIFHIGSCLAELGQYEEAANYFFKLDFIESNCIKAWRGIGWCSFISRKYEQAMKYYEKIIEQKPLAIDYMNAGHVAWTMGDIQKAAALYGKSITANGNRERFLEMFRKDEEALLKQGIQEEDIPLMLDLL", "protein production": "failed"}
{"sequence": "MNEKTLHLDKKSAVVGGLNLSQTKIFGTPLPLFLFLLLTVLAAHFTDTLPSGLVGGFAFMFVIGAIFGEVGKRLPIFNKYIGGAPVMIFLVAAWFVHMGWLSDREIKTVTEVMDKSKFLDLFIAVLITGSILAVNRKLLIRSLAGYIPTILAAVAGAAVFGIAIGLVFGITPDRIMMLYVLPIMGGGNGAGAIPLSEIYESVTGGSKEQYYSVAIAILTIANIVAIVAAAVINIIGEKIPSLTGNGELVRSSKLDVSEEAKNLTVTHREIAIGLMLAACVYTFSYALSKEILPGFGSIQIHTFAYMVVIIAILNAAGLCSDEIKEGAKRLSNFFSKQMLWLLMVGVGIAYTDLAEIINALTFANVIIATVIVLGAIIGAALGGWAMGFYPVEASITAGLCMANRGGSGDLEVLAASNRMSLLSYAQISSRLGGGIVLVIASVVFGMFV", "protein production": "failed"}
{"sequence": "MNELILLRQLAENQQYPSLLELAQSLWYDSGNPAVLPLLATANAHMGLKENTQALYQQSLKHFDVLDVDARCDLAVVLIVMQRIDDAIKMLSDILMEQGNHALALARLAYCYLASGRLAEAQHFFEKSLIITPERFIVHRNLVAVYIAQNELNQAQKQLDSATEVLVNYHKVGDPLYQQYWFQLNTTQLQLWVVQGLFCPAEEWLTQLSVRQQAGDYDEAVLVQYVKSYSQVLAEKNFHQQATNILREYLKQYNNNVELCMALAELAQVQGHFMQAISLLQKALKKDEGNSDLWVQLSTACLHRFDKKARKAAVRAVSLAEALEITDEQSLVLIKMKQAQANNALAEVECQEQNFEVSEKLYRDILAEHSHFLPALQGLGQQQMQQGNIDEAVALFERIKDIDLLKGCSALINVRRFPDDVEALDKMAIAANKPSMEGSLRAGILFQLAAAWEKKKDYNKAFRFAEQANNASKKFLSYNAQKHREDCARLRACFNKTLYQHRPNYGIESTIPVYVLGMPRSGTTLVEQILSGHSDIFGAGELGVIPQVIQGINRWERHTGSGRQYPDCIDDFNADTIAGIANNMLKELQELAAETKPESKYVVDKMPHNFENIGLIKFLFPNAKIISVRRDPRDIAMSNYFTDYQAKHGGMGFAYDLEHIGEQLADHNLLMHHWQQTFPDEILEINYEDVVDDIEGCARKMLSYIGVNWQPKVLKFNELVRTVKTASVWQVRQPIYKTSKGKWLRYQTRLTPLIKGTNAKIVSHPITDLLTLPEPGFLTDGVALYKEGKLDDAEMCFKKMLHHNPGHAACHYMIGLVYLTKNHAQDGIRHFEKAVASCPWQKEWRQNLLKAYEQEGETNKIAAFKKGNQRTTANDANNAVTYDEHFTSDAFTTKTTVSQ", "protein production": "failed"}
{"sequence": "MNENEQKAGSVADQKSKIRERYKGIDPDELDVIPALPQEDIFAVENEQRVAVYARVSTDDPRQTSSYELQKNHYHDVISKSPNWKLVQIYADEGISGTSLQHRDQFKLMIEDCKKGQIDLIVTKSVSRFARNVVDCIGYVRELLSLPHPVGVFFETERLNTFDPKSEMVLSFMATLAQEESHTKSEIMNASIEMRFRRGIFLTPILLGYDHDEDGNLIINEGEAKIVKLIFMMYLNGCTCQEIADTLTELGCETKKGNTVWSPGSILQILQNERHCGDVLAHKTYTPNYLNHKSKKNMQNRPQYRKRDHHEAIISRDDFIAVQRLISNAKYGNKGILPQLKVIPGGVLKGFVSINPRWAGFKETDYMNASSSVYDGTEQSGPSSGHVEVKSGEFDLRGYEIARSQFFDSTDRITVTFSQGDIRFSAPAVRKLDSTLVELLIHPKKLVFAVRNAGKDCRNAMQWSKKKDGKNSPREISGTAFLPTLYSLLGWNDDCRYRITGVKRGSGNDAVLLFNLSEPEIFIPNDMVGAPDADPAVKPFTDNQQRNVRAYPPDWADTFGSNYYSHAQAEELAGFTGRKDPDTSHAPVTYNDTDIQVTSKNDIEKNIKQIMSDMKENTDEHTDKR", "protein production": "failed"}
{"sequence": "MNEQPNNETLIQSSSRDLQIIEDDAFSYEGYQVVRGEFFAHTYEPSFTFNANKVSVNTACIKKLPKTDFVQILVNPDEKKLAVRPCQEDEKDSFRWCSATKKRSPRQITCRIFFAKVITLMGWNSSYRYKLLGKLIRSDNELLFVFDLTTPEIYVRTAKDDGKIKTSRTPTYPAEWQNQFGVPVEEHQSNLQINMFDGYAVFGISENTPPEEPKNPAEPQKEETHYEQSSLFTANPMH", "protein production": "failed"}
